Laboratory results taken from the nanobody polyreactivity screen of Harvey et al. (2022).

Experiment: yeast display, Sf9 membrane polyspecificity reagent, FACS + sequencing; frameworks hold sequencing errors
Outline: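 Synthetic nanobody libraries on Saccharomyces cerevisiae BJ5465 were galactose-induced for 36–48 hours, stained 1 hour at 4 °C with 10% biotinylated, detergent-solubilized Sf9 membrane reagent and enriched on streptavidin microbeads. FACS then separated cells into low and high (top ~1%) gates by anti-HA (expression) and streptavidin (reagent binding) fluorescence. Genes were colony-PCR amplified, MiSeq 2 × 250 sequenced and CDR-length filtered. A clone's polyreactivity label is that of its gate of origin.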

Row | Sequence | polyreactivity (PSR sort gate)
1 | QVQLVESGGGLVQAGGSLRLSCAASGRTFLVYAMGWYRQAPGKERELVAAITSGGDTYADSVKGRFTISRDNAKNTVYLQMNSLKPEDTAVYYCAVQPDYFIVLWEYDYWGQGTQVTVSS | high polyreactivity
2 | QVQLVESGGGLVQAGGSLRLSCAASGRTFLVYAMGWYRQAPGKERELVADITGRGGITYYADSVKGRFTISRDNAKNTVYLQMNSLKPEDTAVYYCAAERYNSKTIYRYDYWGQGTQVTVSS | high polyreactivity
3 | QVQLVESGGGLVQAGGSLRLSCAASGRTFLVYAMGWYRQAPGKERELVATIRASTGSTYADSVKGRFTISRDNAKNTVYLQMNSLKPEDTAVYYCNAVHYFLYGYYSWGQGTQVTVSS | high polyreactivity
4 | QVQLVESGGGLVQAGGSLRLSCAASGRTFLVYARGWYRQAPGKDRELVAAISISSGSTYYADSVKGRFTISRDNAKNTVYLQMNSLKPEDTAVYYCAAVYTYVKRASENDYWGQGTQVTVSS | low polyreactivity
5 | QVQLVESGGGLVQAGGSLRLSCAASGRTFLVYTMGWYREAPGKERELVAAISWSDGSTYYADSVKGRFTISRDNAKNTVYLQMNSLKPEDTADYYCAARRTGYLYRYGYWGQGTQVTVSS | low polyreactivity
6 | QVQLVESGGGLVQAGGSLRLSCAASGRTFLWNDMGWYRQAPGKERELVAAITGSDGTYADSVKGRFTISRDNAKNTVYLQMNSLKPEDTAVYYCAAVYSYQNEGYDYWGQGTQVTVSS | low polyreactivity
7 | QVQLVESGGGLVQAGGSLRLSCAASGRTFLYNAMGWYRQAPGKERELVATITWSDDGTYYADSVKGRFTISRDNAKNTVYLQMNSLKPEDTAVYYCAAVYPRTRVKMDYWGQGTQVTVSS | low polyreactivity
8 | QVQLVESGGGLVQAGGSLRLSCAASGRTFLYYAMGWFRQAPGKERELVAAISASGGSTYYADSVKGRFTISRDNAKNTVYLQMNSLKPEETAVYSCARYTGWGSRYDYWGQGTQVTVSS | high polyreactivity
9 | QVQLVESGGGLVQAGGSLRLSCAASGRTFLYYAMGWYRQAPGKERELVAAISTGSSTYYADSVKGRFTISRDNAKNTVYLQMNSLKPEDTAVYYCAAGSIVGYPGFSTDDYWGQGTQVTVSS | low polyreactivity
10 | QVQLVESGGGLVQAGGSLRLSCAASGRTFLYYTMGWYRQAPGKERELVAVISIEGGGTYADSVKGRFTISRDNAKNTVYLQMNSLKPEDTAVYYCAVDALSITYGYWGQGTQVNVSS | low polyreactivity
11 | QVQLVESGGGLVQAGGSLRLSCAASGRTFNFYSMGCYRQAPRKERELVAAISHGDSTYYADSVKGRFTISRDNAKNTVYLQMNSLNPEDTAVYYCAASQKYYLRKYEYWGQGTQVTVSS | low polyreactivity
12 | QVQLVESGGGLVQAGGSLRLSCAASGRTFNGYAMGWYRQAPGKERELVARITYRGGGTYYADSVKGRFTISRDNAKNTVYLQMNSLKPEDTAVYYCNARGVQYRYYYWGQGTQVTVSS | high polyreactivity
13 | QVQLVESGGGLVQAGGSLRLSCAASGRTFNGYAMGWYRQAPGKERELVASISWSGGRTYYADSVKGRFTISRDNAKNTVYFQMNSLKPEDTAVYYCAATFVNVVGYDYWGQGTQVTVST | high polyreactivity
14 | QVQLVESGGGLVQAGGSLRLSCAASGRTFNKNSMGWYRQAPGKERELVAAITTGGGTYYADSVKGRFTISRDNAKNTVYLQMNSLKPEDTAVYYCAARRRRWSGYWGQGTQVTVSS | high polyreactivity
15 | QVQLVESGGGLVQAGGSLRLSCAASGRTFNKYAMGWYTQAPGKERELVAAISTRGGSTYYADSVKGRFTISRDNAKNTVDLQMNSLKPEDTAVYYCAARLTTVGQGFDYWGQGTQVTVSS | high polyreactivity
16 | QVQLVESGGGLVQAGGSLRLSCAASGRTFNLYAMGWYRQAPGKEREFVAAISYSGDSTYYADSVKGRFTISRDNAKNTVYLQMNSLKPEDTAVYYCNADRLQVTRTYDYWGQGTQVTVSS | low polyreactivity
17 | QVQLVESGGGLVQAGGSLRLSCAASGRTFNNNAMGWYRQAPGKERELVAAITSGGSTNYADSVKGRFTISRDNAKNTVYLQMNSLKPEDTAVYYCNAGYYSRRYYFSGRLDYWGQGTQVTVSS | low polyreactivity
18 | QVQLVESGGGLVQAGGSLRLSCAASGRTFNPYVMGWYRQAPGKERELVAVITSSGDSTYYADSVKGRFTISRDNAKNTVYLQMNSLKPEDTAVYYCNADYLYYDYDYWGQGTQVTVSS | high polyreactivity
19 | QVQLVESGGGLVQAGGSLRLSCAASGRTFNRNAMGWYRQAPAKERELVAAITSSGGRTYYADSVKGRFTISRDNAKNTVYLQMNSLKPEDTAVYYCNVGPYYPVYLGYLLWYDYWGQGTQVTVSS | high polyreactivity
20 | QVQLVESGGGLVQAGGSLRLSCAASGRTFNRNAMGWYRQAPGKERELVAAISRGGGGTFYADSVKGRFTISRDNAKNTVYLQMNSLKPEDTAVYYCAAELYYWTYVRFDYWGQGTQVTVSS | low polyreactivity
21 | QVQLVESGGGLVQAGGSLRLSCAASGRTFNRYAMGWYRQAPGKERELVAAINWSGGSTYYADSVKGRFTISRDNAKNTVYLQMNSLKPEDTAVYYCNAGLGKFPVKGGRRYRLDYWGQGTQVTVSS | low polyreactivity
22 | QVQLVESGGGLVQAGGSLRLSCAASGRTFNRYAMGWYRQAPGKERELVAAISGGGSSTSYADSVKGRFTISRDNAKNTVYLQMNSLKPEDTAVYYCAAKYGALRYYNMYYWGQGTQVTVSS | low polyreactivity

Row | Sequence | polyreactivity (PSR sort gate)
23 | QVQLVESGGGLVQAGGSLRLSCAASGRTFNRYVMGWYRQAPGNERELVAALTSSGRTNYADSVKGRFTLSRDNAKNTVYLQMNSLKPEDTAVYYCAKGLYRRYYRVWWLRGDYWGQGTQVTVSS | high polyreactivity
24 | QVQLVESGGGLVQAGGSLRLSCAASGRTFNSYAMGWYRQAPGKERELVAAISRRGGSTYYADSVKGRFTISRDNAKNTVYLQMNSLKPEDTAVYYCASTIVQYISRMDYWGQGTQVTVSS | high polyreactivity
25 | QVQLVESGGGLVQAGGSLRLSCAASGRTFNTNAMGWYRQAPGKERELVAAISRRSGSTYYADSVKGRFTISRDNAKNTVYLQMNSLKPEDTGVYYCARTAVRKYPYEYWGQGPQVTVSS | high polyreactivity
26 | QVQLVESGGGLVQAGGSLRLSCAASGRTFNTYAMGWYRQAPGKERELVAAISKRGGSTYYADSVKGRFTISRDNAKNTVYLQMNSLKPEDTAVYYCNAKGNVRMYWGQGTQVTVSS | high polyreactivity
27 | QVQLVESGGGLVQAGGSLRLSCAASGRTFNVNAMGWYRQAPGIERELVATISSAASTNYADSVKGRFTISRDNAKNTVYLQMNSLKPEDTAVYYCNAAFYKEYYYWGQGTQVTVSS | low polyreactivity
28 | QVQLVESGGGLVQAGGSLRLSCAASGRTFNYYAMAWYRQAPGKERELVAAISYSGGSTYYADSVKGRFTISRDNAKNTVYLQMNSLKPEDTAVYYCAVVIKWRSSYVYSYYYWGQGTQVTVSS | high polyreactivity
29 | QVQLVESGGGLVQAGGSLRLSCAASGRTFNYYAMGWYRQAPGKERELVASIRYSTGSTYYADSVKGRFTISRDNAKNTVYLQMNSLKPEDTAVYYCAARRYARASRYDYWGQGTQVTVSS | high polyreactivity
30 | QVQLVESGGGLVQAGGSLRLSCAASGRTFPAYAMGWYRQAPGKERELVAAISYSGGRTRYADSVKGRFTISRDNAKNTVYLQMNSLKPEDTAVYYCNRVIPTHSLRDYYWGQGSQVTVSS | high polyreactivity
31 | QVQLVESGGGLVQAGGSLRLSCAASGRTFPAYTMGWYRPAPGKERELVAAIRWSGGRTRYADSVKGRFTISRDNAKNTVYLQMNSLKPEDTAVYYCAAYRLSKPFYKYDYWGQGTQVTVSS | high polyreactivity
32 | QVQLVESGGGLVQAGGSLRLSCAASGRTFPAYTMGWYRQAPGKERELVAAINWSGGSTYYADSVKGRFTISRDNAKNTVYLQMNSLKPEDTAVYYCARTSRYYGFRSYGTLDYWGLGTQVTVSS | high polyreactivity
33 | QVQLVESGGGLVQAGGSLRLSCAASGRTFPEYGMGWYRQAPGKEREFVAAISTRGGSTYYANSVKGRFTISRDNAKNTVYLQMNSLKPEDTAVYYCAKVYDRSGGDYWGQGTQVTVSS | low polyreactivity
34 | QVQLVESGGGLVQAGGSLRLSCAASGRTFPFNAMGWYRQPPGKERELVAVINSGGSTYYADSVKGRFTISRDNAKNTVYLQMNSLKPEDTAVYYCYVKRYLWFTDLLYDYWGQGTQVTVSS | high polyreactivity
35 | QVQLVESGGGLVQAGGSLRLSCAASGRTFPFYAMGWYRQAPGKERELVAAINSGGITNYADSVKGRFTISRDNAKYTVYLQMNSLKPEDTAVYYCAAKTAFYRERGYWGQGTQVTVSS | low polyreactivity
36 | QVQLVESGGGLVQAGGSLRLSCAASGRTFPFYAMGWYRQAPGKERELVADITSSGGSTYYADSVKGRFTISRDNAKNTVYLQINSLKPEDTAVYYCNKRPWTRFDSGQGTQVTVSS | low polyreactivity
37 | QVQLVESGGGLVQAGGSLRLSCAASGRTFPFYAMGWYRQAPGKERELVAVITWRGSNTYADSVKGRFTISRDNAKNTVYLQMNSLKPEDTAVYYCSATGGRYIDGYYYWGQGTQVTVSS | high polyreactivity
38 | QVQLVESGGGLVQAGGSLRLSCAASGRTFPGNAMGWYRQAPGKERELVAAISRRGGTTYYADSVKGRFTITRDNAKNTVYLQMNSLKPEDTAVYYCAKSYRDYGISDFDYWGQGTQVTVSS | high polyreactivity
39 | QVQLVESGGGLVQAGGSLRLSCAASGRTFPGNSMGWYRQAPGKERELVAAISWSGTRTYYADSVKGRFTISRDNAKNTVYLQMNSLKPEDTAVYYCNVVVKGAWDYYPYDYCGQGTQVTVSS | high polyreactivity
40 | QVQLVESGGGLVQAGGSLRLSCAASGRTFPGYAMGWYRQAPGKERELVAAISNSGGRTYYADSVKGRFTISRDNAKNTVYLQMNSLKPEDTAVYYCNALGRVRYSPRYGYDYWGQGTQVTVSS | high polyreactivity
41 | QVQLVESGGGLVQAGGSLRLSCAASGRTFPGYAMGWYRQAPGKERELVAAITSSGSSTYYADSVKGRFTISRDNAKNTVYLQMNSLKPEDTAVYYCAAKTSGDYDYWGQGSQVTVSS | low polyreactivity
42 | QVQLVESGGGLVQAGGSLRLSCAASGRTFPGYAMGWYRQAPGKERELVAGISYRGGSTYYADSVKGRFTISRDNAKNTVYLQMNSLKPEDTAVYYCARDYSRHKGDYWGQGTQVTVSS | low polyreactivity
43 | QVQLVESGGGLVQAGGSLRLSCAASGRTFPGYAMGWYRQAPGKERELVAGISYRGGSTYYADSVKGRFTISRDNAKNTVYLQMNSLKPEDTAVYYCNATYGGPYYIQYDYWGQGTQVTVSS | low polyreactivity
